Paper PMC3290704 (2012)

Key:
[1] = target: T1, p53 AD1 13-37 (Homo sapiens, UniProt P04637); assay: NMR HSQC titration, local fit raw with concentration correction
[2] = target: T1, p53 AD1 13-37; assay: NMR HSQC titration, local fit raw
[3] = target: T1, p53 AD1 13-37; assay: NMR HSQC titration, local fit SVD
[4] = target: T1, p53 AD1 13-37; assay: NMR HSQC titration, local fit SVD; remark: listed apart in the source
[5] = target: T1, p53 AD1 13-37; assay: NMR HSQC titration, global fit raw
[6] = target: T1, p53 AD1 13-37; assay: NMR HSQC titration, local fit raw; remark: listed apart in the source
[7] = target: T1, p53 AD1 13-37; assay: NMR HSQC titration, global fit SVD

T1 sequence (P04637 13-37): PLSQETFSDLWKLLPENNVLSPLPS

Kd [1]: 345 µM
Kd [2]: 448 µM
Kd [3]: 225 µM
Kd [4]: 33 µM
Kd [5]: 180 µM
Kd [6]: 27 µM
Kd [7]: 32 µM
B1: CBP TAZ2 1764-1855 (protein)
chain: SPQESRRLSIQRCIQSLVHACQCRNANCSLPSCQKMKRVVQHTKGCKRKTNGGCPVCKQLIALCCYHAKHCQENKCPVPFCLNIKHKLRQQQ
